Substrate in data set [1]: N[C@@H](CCC(=O)N[C@@H](CS)C(=O)NCC(=O)O)C(=O)O
The experiment in a line: purified protein, by the assay type. Also on record: GSH conjugation with chloronitrobenzene substrate, absorbance at 340 nm, Km for glutathione. As to conditions: pH 7.2; 37.0 °C.

Substrate in data set [2]: CN(C)C(=S)SSC(=S)N(C)C
As to the kind of experiment: purified protein. The following applies: G-site; S67 necessary for activity. Format: biochemical, Carica papaya.

B1: TCpGST (Carica papaya) (protein)
chain: MADEVVLLDFWPSPFGMRIRIALAEKGIHYEYKEENLRNKSPLLLQMNPVHKKIPVLIHNGKPICESLIQIQYIDEVWSDKAPLLPSDPYQRAQARFWADYVDKKMYEAGRRVWTTKGEEQEGAKKEFIEILKTLEGELGEKPYFGGESFGYVDLTFIPFYTWFSVYESFGKMSIEAECPKLFSWVKRCLEKESVSKSLPDQDKVYGFVLELRKALGI
notes: wild-type full-length ORF, C-terminal His6, pET-30a, E. coli BL21(DE3)
By Km is commonly meant the concentration of substrate that gives half-maximal velocity. One may read the Vmax as the rate approached at saturating substrate. Usually kcat stands for the maximal rate divided by the concentration of active sites. In general, kcat/Km refers to the second-order rate constant that governs catalysis at low substrate concentration. Turning to B1, in data set [1], the Michaelis constant (Km) is 30 ± 8.3 µM, the Vmax came out at 552 µM/min, the kcat stood at 0.197 ± 0.0169 s⁻¹ and the catalytic efficiency (kcat/Km) was 6550 M⁻¹ s⁻¹.

B2: tau class glutathione S-transferase from Carica papaya (TCpGST) (Carica papaya) (protein)
chain: B1 chain
notes: full-length ORF (657 bp), C-terminal His6, pET-30a, E. coli BL21(DE3), Ni-NTA purified
As for B2, the Michaelis constant (Km) in data set [2] came to 148.4 ± 7 µM.
